B1: EEHEE_rd3_1049 (parent)
chain: TTVKLGDIKVTFDNPEKAKKYAQKLAKIYQLTVHVHGDTIHVK

Variants of: B1
Experiment: folding stability dG (cDNA display proteolysis); higher = more stable
Conditions: PBS, room temperature

Folding stability dG [kcal/mol], by site and new letter:
V35: F 2.08, P 0.957, C 2.12, A 1.34, L 1.7, I 2.26, E 1.56, D 1.57, Y 2.14, G 0.496, K 1.24, S 1.17, W 1.99, Q 1.78, T 1.5, H 1.57, N 1.09, R 1.27
T32: Q 1.87, Y 1.69, W 1.48, N 1.43, V 2.21, S 1.94, P 0.612, M 1.75, R 1.4
H41: E 2.44, D 1.49, G 0.476, I 2.58, A 1.26, F 2.37, K 1.1, C 2.41
H34: N 1.34, P -0.084, G 0.853, K 1.71, E 2.46, Y 2.39, F 2.39, T 2.12, R 1.64, L 2.06, C 3.12, A 1.9, M 2.08, I 2.44, D 1.58, W 2.15, S 2.03, Q 2.11, V 2.59
T39: A 1.13, C 2.26, D 0.923, V 2.23, N 1.06, S 1.24, G 0.726, W 1.55, F 1.77, K 0.943, P 0.457, L 1.81, Y 1.71, Q 1.36, R 0.835, H 1.58, M 1.96, E 1.82, I 2.27
I40: S 0.541, K 0.443, V 1.3, F 1.6, Y 1.66, P 0.463, M 1.16, H 0.576, A 0.282, W 1.28, C 0.854, D 0.287, G 0.535, T 0.449, L 1.66, Q 0.438, E 0.224, N 0.239, R 0.214
G37: Y 1.24, D 1.22, M 1.22, N 1.3, H 1.05, T 0.847, W 1.25, L 1.31, Q 1.27, I 1.04, K 1.24, S 1, R 1.13, A 1.28, V 1.05, E 1.3, F 1.38, P 0.698
D38: Q 1.85, K 1.85, G 1.6, W 1.76, F 1.7, A 1.94, N 2.47, P 1.42, T 2, I 1.6, S 2.16, L 1.83, M 1.97, H 1.95, R 1.86, C 2.12, V 1.57, E 1.47, Y 1.47
V33: G 0.145, T 1.11, W 1.85, S 0.464, M 1.78, D -0.143, L 2.1, N -0.39, Y 1.54, K -0.112, I 2.37, Q 0.334, R -0.171, A 0.869, C 2.12, F 1.6, E 0.147, P 0.242, H 0.305
H36: L 2.34, E 2.66, F 2.17, P 0.039, W 1.99, R 1.96, Q 2.34, V 2.61, K 1.96, C 3.31, M 2.46, T 2.07, G 1.16, A 2.12, D 2.58, Y 2.19, N 2.04, S 2.19, I 2.73
